Data on one substance can be found in publication PMC12077149, “Evolution of PqsE as a Pseudomonas aeruginosa-specific regulator of LuxR-type receptors: insights from Pseudomonas and Burkholderia” (mBio, 2025).

The test system of data set [1] is CC(=O)CC(=O)SCCNC(=O)CCNC(=O)[C@H](O)C(C)(C)COP(=O)(O)OP(=O)(O)OC[C@H]1O[C@@H](n2cnc3c(N)ncnc32)[C@H](O)[C@@H]1OP(=O)(O)O. Description: purified protein. The note with it: 0.1 M Tris-HCl pH 8.0, 2 mM DTNB, 2 µM enzyme, substrate up to 1 mM.
Data set [2] has as its system CCCC(=O)Oc1ccc2c(C)cc(=O)oc2c1. Description: purified protein. The note with it: 50 mM Tricine, 0.01% Triton X-100; 2 µM enzyme; substrate up to 8 µM.

“PqsE (Pseudomonas aeruginosa UCBPP-PA14)”: in data set [1], the Km – broadly, the substrate concentration at which the rate is half of its maximum – is 3200 ± 200 µM; the kcat (commonly the maximal rate divided by the concentration of active sites) amounted to 0.438 ± 0.05 s⁻¹; the kcat/Km (in general, the turnover number divided by the Michaelis constant) was 140 M⁻¹ s⁻¹. Besides, in data set [2], the Km was 8.1 ± 0.1 µM, the kcat is 0.0197 ± 0.09 s⁻¹ and the kcat/Km came to 2400 M⁻¹ s⁻¹.
